From patent US20210221885A1 (NANJING LEADS BIOLABS, published 2021)

B1: anti-TIM-3 antibody TIM3-6.11 (antibody, human IgG1, lambda, L234A L235A, V domains shown)
VH: QVQLVQSGAEVKKPGSSVKVSCKASGGTFSSYTIYWVRQAPGQGLEWMGSIIPILGTANYAQKFQGRVTITADESTSTAYMELSSLRSEDTAVYYCASASHTIWGQGTLVTVSS
VL: QAVVTQEPSLTVSPGGTVTLTCASSTGAVTSGYTPNWFQQRPGQAPRALIYTTSNRHSWTPARFSGSLLGGKAALTLSGVQPEDEADYYCLLYYGGAWVFGGGTKLTVLG
B2: anti-TIM-3 antibody TIM3-6.10 (antibody, human IgG1, lambda, L234A L235A, V domains shown)
VH: QVQLVQSGAEVKKPGSSVKVSCKASGGTFSSYTIYWVRQAPGQGLEWMGSIIPILGTANYAQKFQGRVTITADESTSTAYMELSSLRSEDTAVYYCASASHTIWGQGTLVTVSS
VL: QAVVTQEPSLTVSPGGTVTLTCASSTGAVTSGNTPNWFQQRPGQAPRALIYTTSNRHSWTPARFSGSLLGGKAALTLSGVQPEDEADYYCLLYYGGAWVFGGGTKLTVLG
B3: anti-TIM-3 antibody TIM3-6.12 (antibody, human IgG1, lambda, L234A L235A)
heavy: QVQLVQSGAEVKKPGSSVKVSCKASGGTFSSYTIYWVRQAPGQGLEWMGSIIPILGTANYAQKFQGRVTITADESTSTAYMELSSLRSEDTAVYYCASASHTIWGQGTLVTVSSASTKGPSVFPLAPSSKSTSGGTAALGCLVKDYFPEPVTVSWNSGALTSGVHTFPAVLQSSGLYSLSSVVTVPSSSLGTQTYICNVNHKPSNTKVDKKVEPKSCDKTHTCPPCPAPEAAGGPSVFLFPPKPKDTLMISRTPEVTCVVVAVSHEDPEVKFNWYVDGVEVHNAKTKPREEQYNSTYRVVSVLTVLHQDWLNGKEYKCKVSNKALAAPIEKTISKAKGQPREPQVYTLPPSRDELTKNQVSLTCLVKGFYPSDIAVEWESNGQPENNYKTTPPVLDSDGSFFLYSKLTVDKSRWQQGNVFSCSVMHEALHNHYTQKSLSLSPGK
light: QAVVTQEPSLTVSPGGTVTLTCASSTGAVTSGYTPNWFQQRPGQAPRALIYTTNNRHSWTPARFSGSLLGGKAALTLSGVQPEDEADYYCLLYYGGAWVFGGGTKLTVLGQPKAAPSVTLFPPSSEELQANKATLVCLISDFYPGAVTVAWKADSSPVKAGVETTTPSKQSNNKYAASSYLSLTPEQWKSHRSYSCQVTHEGSTVEKTVAPTEC
notes: In the internalization assay the antibody carried pHAb amine reactive dye
B4: anti-TIM-3 antibody TIM3-4G7 (antibody, human IgG4 S228P, kappa, V domains shown)
VH: EVQLVETGGGLVQPGGSLRLSCAASGFTFSSYAMSWVRQAPGKGLEWVSGISGSGGSTYYADSVKGRFTTSRDNSENTLYLQMNSLRAEDTAVYYCAGSYYDDAFDIWGQGTLVTVSS
VL: ETTLTQSPATLSLSPGDTATLSCRASQSVTKDLVAWYQQRPGQAPRLLLYGASSRATGIPDRFSGSGSGTDFTLTISRLEPEDFAVYYCQQYGRSPLTFGGGTKVEIKR
notes: Full-length IgG
B5: ABTIM3 analog (antibody, human IgG4 S228P, kappa, V domains shown)
VH: QVQLVQSGAEVKKPGASVKVSCKASGYTFTSYNMHWVRQAPGQGLEWIGDIYPGSGDTSYNQKFKGRATMTADKSTSTVYMELSSLRSEDTAVYYCARVGGAFPMDYWGQGTLVTVSS
VL: DIVLTQSPDSLAVSLGERATINCRASESVEYYGTSLMQWYQQKPGQPPKLLIYAASNVESGVPDRFSGSGSGTDFTLTISSLQAEDVAVYYCQQSRKDPSTFGGGTKVEIKR
B6: anti-TIM-3 antibody TIM3-6 (antibody, human IgG4 S228P, lambda, V domains shown)
VH: QVQLVQSGAEVKKPGSSVKVSCKASGGTFSSYTISWVRQAPGQGLEWMGRIIPILGTANYAQKFQGRVTITADESTSTAYMELSSLRSEDTAVYYCASASHTIWGKGTLVTVSS
VL: QAVVTQEPSLTVSPGGTVTLTCASSTGAVTSGYSPNWFQQRPGQAPRALIYTTSNRHSWTPARFSGSLLGGKAALTLSGVQPEDEADYYCLLYYGGAWVFGGGTKLTVLG
notes: Full-length IgG expressed in CHO-S cells
B7: anti-TIM-3 antibody TIM3-11 (antibody, human IgG4 S228P, lambda, V domains shown)
VH: QVQLQQSGPGLVKPSQTLSLTCAISGDSVSSNSAAWNWIRQSPSRGLEWLGRTYYRSKWYNDYAVSVKSRITINPDTSKNQFSLQLNSVTPEDTAVYYCARDQAAGFPQPYIYGMDVWGKGTMVTVSS
VL: LPVLTQPPSVSKGLRQTATLTCTGNSNNVGNQGAAWLQQHQGHPPKLLTYRTNNRPSGISERFSASRSGNTASLTITGLQPEDEADYYCSGWDSSLNEGVFGGGTKLTVLG
notes: Full-length IgG

Experiments:
[1] = molecular target: T1, Human TIM-3 protein (Acrobiosystems, Cat#TM3-H5229) (human, UniProt Q8TDQ0 22-200); assay: SPR, Biacore T200; antibody captured on anti-human IgG (Fc), human TIM-3 injected at 1.56-50 nM; 1:1 Langmuir fit
T1 construct: Bought protein; also called recombinant human TIM-3; TIM-3 recombinant protein
T1 sequence (looked up): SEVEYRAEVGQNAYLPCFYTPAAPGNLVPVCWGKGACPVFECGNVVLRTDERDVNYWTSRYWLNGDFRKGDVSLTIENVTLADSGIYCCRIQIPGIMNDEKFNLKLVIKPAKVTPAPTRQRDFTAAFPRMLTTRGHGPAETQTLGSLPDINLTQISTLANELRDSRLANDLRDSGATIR
Experimental: The kinetic binding activity of anti-TIM-3 antibodies to human TIM-3 (Acrobiosystems, Cat#TM3-H5229) was measured by surface plasmon resonance using a Biacore® T200 system (Biacore, GE Healthcare).
Approximately 6800 RU of Anti-Human IgG (Fc) antibody (GE Catalog # BR-1008-39) was immobilized via amine coupling chemistry onto a CMS sensor chip. […] HBS-EP+ buffer was used as the running buffer. Varying concentrations of human TIM-3 protein, ranging from 1.56 nM to 50 nM, were injected over the antibody surfaces. Following each injection cycle, the CMS chip surface was regenerated using injection of 3M magnesium chloride solution. Background subtraction binding sensorgrams were used for analyzing the rate of association Ka and dissociation Kd, and the equilibrium dissociation constant KD. The resulting data sets were fitted with a 1:1 Langmuir Binding Model using the Biacore T200 evaluation software.

[2] = molecular target: T1, Human TIM-3 protein (Acrobiosystems, …); assay: ELISA, human TIM-3 coated at 1 ug/mL, detection with peroxidase-labeled anti-human IgG, OD450-620; the unit is that of the concentration axis
Experimental: (§1) An ELISA assay was used for determination of the relative binding activity of antibodies to recombinant human TIM-3.
(§2) Human TIM-3 protein (Acrobiosystems, Cat#TM3-H5229) in carbonate buffer (pH 9.6, 1.59 g sodium carbonate and 2.93 g sodium bicarbonate dissolved in 1L water) was immobilized onto 96-well plates at 1μg/mL by incubation overnight at 4° C. The plates were then blocked with 1% BSA in PBS for one hour at 37° C. After blocking, the plates were washed three times with PBST (PBS containing 0.05% Tween20). […] After binding, the plates were washed three times with PBST, incubated for one hour at 37° C. with peroxidase-labeled donkey anti-human IgG (Jackson Immuno Research) diluted 1/15,000 in binding buffer, washed again, developed with TMB and stopped with 1M H₂SO₄.
(§3) The absorbance at 450 nm-620 nm was determined.

[3] = molecular target: T2, human TIM-3 stably expressed on CHO-K1 cells (human, UniProt Q8TDQ0 22-301); assay: flow cytometry on CHO-K1-TIM-3 cells, detection with PE anti-human IgG Fc, MFI; the unit is that of the concentration axis
T2 construct: whole, on cells; also called CHO-K1-TIM-3; cell surface TIM-3
T2 sequence (looked up): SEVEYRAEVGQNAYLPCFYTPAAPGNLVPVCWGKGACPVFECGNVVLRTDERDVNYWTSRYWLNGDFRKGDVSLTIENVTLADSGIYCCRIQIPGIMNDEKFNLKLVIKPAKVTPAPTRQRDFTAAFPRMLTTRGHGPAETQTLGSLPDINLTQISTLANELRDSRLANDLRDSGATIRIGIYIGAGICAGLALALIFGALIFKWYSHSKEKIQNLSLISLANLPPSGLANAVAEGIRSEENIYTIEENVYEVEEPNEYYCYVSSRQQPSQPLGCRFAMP
Experimental: Anti-TIM-3 antibodies were tested for their binding ability to human TIM-3 stably expressed on CHO-K1 cells. A Chinese hamster ovary epithelial CHO-K1 cell line (ATCC, cat# CCL-61) was maintained in F-12K medium containing 10% FBS in a humidified incubator with 5% CO₂ at 37° C. Polyethylenimine (MW25K, 23966-2, Polyscience) was diluted to 1 mg/mL, and added to and incubated with pcDNA3.1 vector containing TIM-3 cDNA (NP_116171.3) at 37° C. for 10 mins. The mixture was added to and incubated with cell culture for 3hrs for DNA transfection.
The anti-TIM-3 antibodies were serially diluted in PBS buffer with 0.5% BSA. The antibodies were added to and incubated with CHO-K1-TIM-3 cells at 4° C. for 30min. The cells were pelleted (3 minutes, 600×g), washed once using PBS buffer with 0.5% BSA and re-pelleted. Then, the cells were incubated with a PE conjugated AffiniPure Goat Anti-human IgG, Fcγ Fragment Specific (Jackson ImmunoResearch Cat#109-116-098) diluted at 1:100 at 4 ° C. for 30mins. Cells were washed twice as described above, resuspended in PBS buffer. The cells were then sent to the […] flow cytometer (BD Bioscience) for binding activity analysis. The EC₅₀ values were calculated.

[4] = molecular target: C1q (Calbiochem, Cat#204876) (UniProt P02745 23-245; P02746 28-253; P02747 29-245); assay: ELISA, antibody coated, C1q added, anti-C1q-HRP detection
Sequence of C1q (Calbiochem, Cat#204876) (P02745 23-245, chain 1 of 3): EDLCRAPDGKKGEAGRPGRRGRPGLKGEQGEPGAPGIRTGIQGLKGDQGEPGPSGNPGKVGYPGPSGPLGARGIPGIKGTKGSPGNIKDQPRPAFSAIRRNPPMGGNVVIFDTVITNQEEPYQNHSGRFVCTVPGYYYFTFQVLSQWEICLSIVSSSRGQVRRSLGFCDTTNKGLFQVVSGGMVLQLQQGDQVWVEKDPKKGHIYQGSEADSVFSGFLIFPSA
Sequence of C1q (Calbiochem, Cat#204876) (P02746 28-253, chain 2 of 3): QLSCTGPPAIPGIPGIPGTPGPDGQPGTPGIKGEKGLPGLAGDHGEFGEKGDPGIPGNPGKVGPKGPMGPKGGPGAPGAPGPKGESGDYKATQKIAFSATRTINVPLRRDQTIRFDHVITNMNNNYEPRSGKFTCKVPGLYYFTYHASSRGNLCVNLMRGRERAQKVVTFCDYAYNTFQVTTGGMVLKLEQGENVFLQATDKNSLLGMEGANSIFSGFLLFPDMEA
Sequence of C1q (Calbiochem, Cat#204876) (P02747 29-245, chain 3 of 3): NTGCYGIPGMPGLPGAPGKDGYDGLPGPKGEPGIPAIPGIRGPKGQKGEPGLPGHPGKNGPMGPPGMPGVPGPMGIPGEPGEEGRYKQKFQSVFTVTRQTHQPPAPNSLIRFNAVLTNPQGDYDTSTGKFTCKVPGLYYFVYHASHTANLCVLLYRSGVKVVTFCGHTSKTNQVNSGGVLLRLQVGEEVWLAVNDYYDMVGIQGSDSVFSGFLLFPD

[5] = molecular target: T1, Human TIM-3 protein (Acrobiosystems, …); assay: ELISA, human TIM-3 coated at 1 ug/mL, detection with peroxidase-labeled anti-human IgG, OD450-620
Experimental: as §1, §2, §3

[6] = molecular target: T3, Eu3+ cryptate labeled TIM3 (Cisbio kit, cat# 63ADK000CTLPEB) (human, UniProt Q8TDQ0 22-202, limits assumed, Eu3+ cryptate label); assay: HTRF blocking assay (Cisbio kit), antibody added to a mixture of Tim3-EuK and Tag-Gal9; blocked ligand galectin-9; the unit is that of the concentration axis
T3 construct: Kit reagent; construct not described; also called Tim3-EuK protein; Tim3-EuK
T3 sequence (looked up): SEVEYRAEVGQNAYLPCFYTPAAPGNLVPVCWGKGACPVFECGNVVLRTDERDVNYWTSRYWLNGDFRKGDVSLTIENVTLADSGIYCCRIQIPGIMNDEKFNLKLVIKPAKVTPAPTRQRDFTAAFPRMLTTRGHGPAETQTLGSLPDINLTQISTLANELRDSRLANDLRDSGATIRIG
Experimental: The resultant mixture was incubated for 1 h at room temperature and then the fluorescence emission was read.

[7] = molecular target: T4, Human TIM-4 (Sino biological, Cat#12161-H08H) (human, UniProt Q96H15 25-315); assay: ELISA, human TIM-4 coated, serially diluted antibody
T4 construct: Bought protein; construct not described
T4 sequence (looked up): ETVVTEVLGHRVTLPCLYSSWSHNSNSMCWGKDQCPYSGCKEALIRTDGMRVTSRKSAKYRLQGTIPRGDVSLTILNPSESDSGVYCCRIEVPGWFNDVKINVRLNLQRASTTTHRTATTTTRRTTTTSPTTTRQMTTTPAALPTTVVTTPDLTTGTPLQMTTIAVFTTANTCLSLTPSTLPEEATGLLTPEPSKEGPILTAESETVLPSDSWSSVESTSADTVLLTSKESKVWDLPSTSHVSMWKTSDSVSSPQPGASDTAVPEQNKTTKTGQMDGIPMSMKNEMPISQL
Experimental: (§4) After blocking, the plates were washed three times with PBST (PBS containing 0.05% Tween20). […] After binding, the plates were washed three times with PBST, incubated for one hour at 37° C. with peroxidase-labeled donkey anti-human IgG (Jackson Immuno Research) diluted 1/15,000 in binding buffer, washed again, developed with TMB and stopped with 1M H₂SO₄.
as §3

[8] = molecular target: T5, Human TIM-1 (Sino biological, Cat#11051-HNCH) (human, UniProt Q96D42 21-295, limits assumed); assay: ELISA, human TIM-1 coated, serially diluted antibody
T5 construct: Bought protein; construct not described
T5 sequence (looked up): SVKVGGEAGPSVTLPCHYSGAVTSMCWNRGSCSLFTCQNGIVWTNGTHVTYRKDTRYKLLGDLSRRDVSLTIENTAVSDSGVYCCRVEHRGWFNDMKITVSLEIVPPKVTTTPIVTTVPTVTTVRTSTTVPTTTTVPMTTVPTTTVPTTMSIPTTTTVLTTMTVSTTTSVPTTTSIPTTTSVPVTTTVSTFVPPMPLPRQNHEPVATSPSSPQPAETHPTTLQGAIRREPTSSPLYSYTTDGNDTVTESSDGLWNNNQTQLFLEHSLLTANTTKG
Experimental: as §4, §3

Row | Binder | Kd [1] | koff [1] | kon [1] | EC50 [2] | IC50 [6] | further results
1 | B1 | 1.5 nM | 0.000344 s⁻¹ | 230000 M⁻¹ s⁻¹ |  |  | 
2 | B2 | 2.05 nM | 0.000415 s⁻¹ | 202000 M⁻¹ s⁻¹ |  |  | 
3 | B3 | 1.66 nM | 0.00037 s⁻¹ | 223000 M⁻¹ s⁻¹ | 0.0915 nM |  | EC50 [3]: 0.746 nM; binding result [4]: no binding
4 | B4 |  |  |  |  | 4.73 nM | EC50 (read off the curve) [5]: 2 to 3 nM
5 | B5 |  |  |  |  | 5.87 nM | EC50 (read off the curve) [5]: ~0.08 nM; EC50 [3]: 0.543 nM
6 | B6 |  |  |  | 9.24 nM | 1.88 nM | binding result [7]: no binding; binding result [8]: no binding
7 | B7 |  |  |  | 5.08 nM | 3.56 nM | 
